# Experimental data as given in US10745461B2, “Pulsed introduction of low-dose RANKL as a therapy for diet-induced atherosclerosis” (Saint Louis University, priority 2015, dated 2020).
# Entries after “also recorded” stand apart in the source; their conditions may differ.
# B1: receptor activator of NF-κB ligand (protein, UniProt O35235 139-316, looked up)
# Tumor necrosis factor ligand …: FSGAPAMMEGSWLDVAQRGKPEAQPFAHLTINAASIPSGSHKVTLSSWYHDRGWAKISNMTLSNGKLRVNQDGFYYLYANICFRHHETSGSVPTDYLQLMVYVVKTSIKIPSSHNLMKGGSTKNWSGNSEFHFYSINVGGFFKLRAGEEISIQVSNPSLLDPDQDATYFGAFKVQDID
# modifications: GST tag
# Columns and labels:
# Format in all cases: in vivo
# [1] = test system: FoxP3+ CD8 T-cells (TcREG); experiment: RANKL dose finding: FoxP3+ CD8 T-cells in bone marrow of FoxP3-GFP reporter mice; settings: two consecutive days, 50 hours after first dose, lowest dose 0.125 mg/kg
# Description: FIGS. 1A, 1B and 1C indicate that TcREG are induced by activated osteoclasis. […] In the absence of RANK L treatment, very low level of conversion was observed after three days. […] ZA was administered intravenously one week prior to adoptive transfer of CD8 T-cells.
# It was first determined the dose of RANKL that produced the maximal number FoxP3^+ CD8 T-cells in the bone marrow. RANKL was administered into FoxP3-GFP reporter mice at various doses for two consecutive days. Fifty hours after first dose, the mice were sacrificed and the numbers of CD8 T-cells that were GFP positive cells in the bone marrow were measured. […] The increased levels of FoxP3 in the bone marrow could either be due to recruitment of TcREG to the bone marrow or induction of FoxP3 expression in cells that were FoxP3 negative. To test for induction FACS sorted the GFP negative population of CD8 (Thy 1.2+ that were CD44 negative or naïve) from the spleens and bone marrow to high purity (FIG. 1C first panel) and adoptively transferred them into congenically marked (Thy 1.1) OT-I Rag^−/− mice. […] In the absence of RANKL administration low levels […] CD8 T-cell were detected (FIGS. 1B and C second panel), but RANKL administration (0.125 mg/kg) yielded ˜1% […] Thy 1.2 T-cells (FIGS. 1B and 1C third panel). […]
# [2] = test system: ovariectomized mice; experiment: Low dose RANKL in ovariectomized mice (TcREG, serum CTX, μCT, bone formation)
# Description: Representative FACS contour plots are shown on the first and second panel and the distribution (N=8 mice per group) is shown in the third panel. […] In these experiments (panels C-F), we used ex vivo generated TcREG as a positive control/comparator. […] Arrows are shown to emphasize the distance between dyes.
# it was then determined that RANKL induces functional TcREG in ovariectomized mice. Having shown that RANKL could restore the ability of osteoclasts to induce FoxP3 expression in the presence of TNFα in vitro, we tested the ability of RANKL to induce TcREG in ovariectomized mice, as proof of principle for de-repression by increased levels of RANKL in pro-inflammatory environment. Again, a dose of RANKL that induced the highest levels of TcREG in vivo (FIG. 1A) was used. Administration of love dose RANKL to ovariectomized mice increased TcREG numbers by an average of 1.8-fold (FIG. 6A). To determine whether this increase in TcREG numbers affected bone resorption in ovariectomized mice, levels of bone resorption and bone formation rates in these (low-dose) RANKL-treated mice were measured. As it has been previously established that ex vivo generated OC-iTcREG limit bone resorption, increased bone mass, decreased activated effector T-cells, and increases bone formation and mineral apposition rates, this treatment was used as a benchmark in these experiments.
# Bilateral ovariectomy was performed on 12-14 week old mice. Mice were anesthetized using 2.5% isoflurane to initiate anesthesia, and 1% for maintenance. The ovaries were accessed through a single incision in the skin, and exteriorized through muscle wall on each side. Each ovary was clamped using hemostat and removed by a single cut. Skin staples (3M) were used to close the skin incision. To minimize discomfort post-surgery, 0.025 mg/kg Buprenorphine was administered subcutaneously. Zoledronate (Selleck Chemicals) was administered at 30 μg/kg via tail vein.
# Food was withdrawn 6 to 10 hours prior to bleeding. Peripheral blood (100 to 200 μL) obtained via sub-mandibular vein, was allowed to clot for 2 hours at room temperature and serum collected by spinning down the cell pellet. Serum C-terminal telopeptide of type 1 collagen (serum CTX) was measured using ELISA according to the manufacturer's instructions (Immunodiagnostic Systems, Plc)
# The bones were scanned in μCT40 (Scanco Medical) at 55 kVp, 145 μA, and resolution of 16 μm. Gauss sigma of 1.2, Gauss support of 2, lower threshold of 237, and upper threshold of 1000 were used for all the analysis. Regions of interest were selected 50 slices below the growth plate of the proximal tibia to evaluate the trabecular compartment. Bone mineral density was obtained by quantitative μCT using Scanco Phantoms for calibration^49. All μCT data and bone histomorphometry data was collected and analyzed by C.Y, who was blinded to the treatment performed on the mouse samples.
# [3] = test system: ovariectomized mice; experiment: Low-dose RANKL at various times post-OVX in C57BL/6J mice; settings: for TcREG induction (flow-cytometry, femora): OVX C57BL/6J, two doses 0.125 mg/kg 24 hours apart, 10 days after first treatment, 2, 3, 6, 8 weeks post-OVX, 0.125 mg/kg
# Description: FIGS. 9E-9F provide for examples of a low-dose RANKL treatment in a mouse model. All mice (C57BL/6J) were sham-operated (S) or ovariectomized (OVX) at 12 weeks of age. At time indicated after OVX, two doses of RANKL (0.125 mg/kg) were administered 24 hours apart 10 days after first treatment, mice were sacrificed. […] Representative images of the proximal tibia are shown from 3 weeks post-OVX in FIG. 9E. […] Representative images from the double-labeled femur (calcein green and alizarin red) from each group are shown. Arrows are shown to emphasize the distance between dyes. Data from 6 to 12 mice per group. For figure reference; ****=P<1×10^−4; ***=P<1×10^−3; **=P<0.01; *=P<0.05 and NS=not statistically significant.
# [4] = test system: atheroma plaque; experiment: Male LDLR-/- mice on western diet, pulsed low-dose RANKL; settings: 9 weeks
# Description: FIGS. 22 and 23 extend the evaluation of the effect of pulse RANKL treatment to male LDLR mice. Surgery was, unnecessary in this case, so all mice were simply placed on the western diet at 10 weeks of age. Two weeks later one-half of the mice were treated with pulsed low-dose RANKL as contemplated elsewhere herein and the same group was treated again 6 weeks later. Time of treatment is indicated by the arrows in FIG. 22. […] All mice were sacrificed 9 weeks after the start of the experiment and plaque volumes were compared between the two groups.
molecule,measurement,setting,value
B1,proportion of FoxP3+ CD8 T cells in the bone marrow as a function of RANKL dose,[1],induced the largest proportion of FoxP3^+ CD8 T cells
same,osteoclasts occupying bone,[2],fewer osteoclasts occupying bone
same,overall effectiveness of treatment,[2],more effective treatment than OC-iTcREG and the bisphosphonate Zoledronic acid by all measurable criteria
same,bone mass and bone mineral density (μCT),[2]; comparator OC-iTcREG,more bone mass and bone mineral density relative to the OC-iTcREG treated mice
same,serum CTX,"[2]; comparator OC-iTcREG, listed as low dose RANKL",lower levels of serum CTX compared to mice treated with OC-iTcREG
same,serum CTX,"[2]; comparator OC-iTcREG, listed as low-dose RANKL",serum CTX levels decreased
same,bone formation and mineral apposition rates,"[2]; comparators OC-iTcREG, Zoledronate, listed as low dose RANKL",to a greater extent than Zoledronate and ex vivo generated TcREG; also recorded: increase bone formation and mineral apposition rates than OC-iTcREG treated mice
same,TcREG induction in bone marrow,[2]; intraperitoneal 0.125 mg/kg,induced TcREG in the bone marrow of ovariectomized mice
same,increase in TcREG numbers (average),[2]; low dose RANKL,1.8 fold
same,"TcREG induction (flow-cytometry, femora)",[3]; listed as Low-dose RANKL,induced TcREG
same,"TcREG induction (flow-cytometry, femora)",[3]; listed as low-dose RANKL,"can induce TcREG at two, three, six and eight-weeks post-ovariectomy"
same,bone mass of the proximal tibia by μCT,[3]; as E20,increased bone mass of the proximal tibia
same,mineral apposition and bone formation rate (dynamic histomorphometry),[3]; as E20,increased mineral apposition (left panel) and bone formation rate
same,proinflammatory effector cells in the femora,[3]; as E20,decreased proinflammatory effector cells in the femora
same,serum CTX levels,[3]; as E20,decreased serum CTX levels
same,plaque volumes,[4],plaque volumes were reduced in the treated group
same,weight gain,[4],weight gain in the treated mice was reduced
